Settings: Aspergillus oryzae (strain ATCC 42149 / RIB 40); pH 4.7; 38 °C; GdnHCl; DSC; glycine 0.04 M; reversible: yes(>90%); whole UniProt chain shown

B1: Guanyl-specific ribonuclease T1 wild type, P00651 (protein)
chain: MMYSKLLTLTTLLLPTALALPSLVERACDYTCGSNCYSSSDVSTAQAAGYQLHEDGETVGSNSYPHKYNNYEGFDFSVSSPYYEWPILSSGDVYSGGSPGADRVVFNENNQLAGVITHTGASGNNFVECT
  unfolding free energy: 6.6 kcal/mol

— FireProtDB (doi:10.1016/0022-2836(74)90188-0)
